Measured values: article PMC5817196, “DprA from Neisseria meningitidis: properties and role in natural competence for transformation” (Microbiology, 2017)

B1: DNA processing chain A from Neisseria meningitidis MC58 (DprANm), recombinant, N-terminal 6xHis-tag (natural protein, UniProt Q9K1K1 1-397, looked up)
chain: MTEDERFAWLQLAFTPYIGAESFLLLMRRFGSAQNALSAPAEQVAALIRHKQALEAWRNAEKRALARQAAEAALEWEMRDGCRLMLLQDEDFPEMLTQGLTAPPVLFLRGNVQLLHKPSAAIVGSRHATPQAMRIAKDFGKSLGGKGIPVVSGMASGIDTAAHQGALQAEGGTIAVWGTGIDRIYPPVNKNLAYEIAEKGLIVSEFPIGTRPYAGNFPRRNRLIAALSQVTLVVEAALESGSLITARLAAEMGREVMAVPGSIDNPHSKGCHKLIKDGAKLVECLDDILNECPGLLQNTGASSYSINKGIPEKRITAVQTASDQLSLPEGKMPSEKTENRPVGGSILDRMGFDPVHPDVLAGQLAMPAADLYAALLELELDGSVAAMPGGRYQRIRT
notes: DprA (DNA processing chain A) of Neisseria meningitidis strain MC58, locus NMB0116; the dprA gene was amplified with primers EH041 and EH042 and inserted into pET28b(+); Theoretical size of the dimer is printed as 89.6 kDa; also called Nm DprA; source: E. coli ER2566 carrying pMGM1 (pET28b(+)), purified (Ni-NTA, dialysed)

Key:
[1] = biological target: the molecule itself; experiment: SEC-MALS; Superdex 200 10/300 GL with Malvern Viscotek UV, RI and static light-scattering detectors; calibrated with BSA; conditions similar to the co-size-exclusion assay; size from the main eluting peak
DprA (DprANm) [2] = biological target: T1, DprA (DprANm) (Neisseria meningitidis MC58, UniProt Q9K1K1 1-397); experiment: EMSA; 30 nM DprA; very stable complex; EMSA: 40 mM Tris-HCl pH 8, 2.5 mM EDTA, 2 mM MgCl2, 100 mg/ml BSA (so in the source), 6% glycerol, 1 mM DTT; 30 min on ice; 5% native PAGE at 4 °C; details: protein: recombinant; tags: N-terminal 6xHis (pET28b, cleavable); chain copies: 2; label: 32P
T1 sequence: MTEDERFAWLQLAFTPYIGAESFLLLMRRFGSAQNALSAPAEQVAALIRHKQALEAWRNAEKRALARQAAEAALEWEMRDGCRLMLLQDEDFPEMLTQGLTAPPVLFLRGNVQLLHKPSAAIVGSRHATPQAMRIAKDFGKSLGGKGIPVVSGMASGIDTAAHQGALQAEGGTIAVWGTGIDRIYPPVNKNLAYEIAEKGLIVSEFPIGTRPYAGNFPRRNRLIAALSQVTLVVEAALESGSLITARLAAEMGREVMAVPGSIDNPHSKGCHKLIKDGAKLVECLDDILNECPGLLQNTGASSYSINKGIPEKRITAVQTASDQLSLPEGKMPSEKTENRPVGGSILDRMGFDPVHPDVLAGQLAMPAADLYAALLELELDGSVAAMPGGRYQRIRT

[3] = biological target: B1; experiment: MST; RED-NHS-labelled SSBNm (23.6 nM) or SSBNmΔ8C (25.6 nM), DprANm titrated; 20 mM HEPES pH 7.5, 300 mM NaCl, 0.05 % Tween 20, 0.1 % Pluronic F-127, 0.1 % PEG 8000, 2 mM DTT; 22 °C, 20 % MST power, Monolith NT.115; details: both partners purified
DprA (DprANm) [4] = biological target: T1, DprA (DprANm); experiment: EMSA; 0.5-80 nM DprA; stronger than dsDNA G80C80 (P=0.034); EMSA: 40 mM Tris-HCl pH 8, 2.5 mM EDTA, 2 mM MgCl2, 100 mg/ml BSA (so in the source), 6% glycerol, 1 mM DTT; 30 min on ice; 5% native PAGE at 4 °C; details: protein: recombinant; tags: N-terminal 6xHis (pET28b, cleavable); chain copies: 2; label: 32P end label
DprA (DprANm) [5] = biological target: T1, DprA (DprANm); experiment: EMSA; 30 nM DprA; complex dissociates easily during electrophoresis; EMSA: 40 mM Tris-HCl pH 8, 2.5 mM EDTA, 2 mM MgCl2, 100 mg/ml BSA (so in the source), 6% glycerol, 1 mM DTT; 30 min on ice; 5% native PAGE at 4 °C; details: protein: recombinant; tags: N-terminal 6xHis (pET28b, cleavable); chain copies: 2; label: 32P
DprA (DprANm) [6] = biological target: T1, DprA (DprANm); experiment: EMSA; 20-40 nM DprA; affinity similar to C80; EMSA: 40 mM Tris-HCl pH 8, 2.5 mM EDTA, 2 mM MgCl2, 100 mg/ml BSA (so in the source), 6% glycerol, 1 mM DTT; 30 min on ice; 5% native PAGE at 4 °C; details: protein: recombinant; tags: N-terminal 6xHis (pET28b, cleavable); chain copies: 2; label: 32P end label

B1
stoichiometry N [1]: 2

B2: dT80 (ssDNA)
DNA: TTTTTTTTTTTTTTTTTTTTTTTTTTTTTTTTTTTTTTTTTTTTTTTTTTTTTTTTTTTTTTTTTTTTTTTTTTTTTTTT
binding result (DprA (DprANm) [2]): binds

B3: single-stranded binding protein of Neisseria meningitidis (SSBNm), recombinant (natural protein, UniProt P66848 1-174, looked up)
chain: MSLNKVILIGRLGRDPEVRYMPNGEAVCNFSVATSETWNDRNGQRVERTEWHNITMYRKLAEIAGQYLKKGGLVYLEGRIQSRKYQGKDGIERTAYDIVANEMKMLGGRNENSGGAPYEEGYGQSQEAYQRPAQQSRQPASDAPSHPQEAPAAPRRQPVPAAAPVEDIDDDIPF
modifications: RED-NHS dye (Monolith NT Protein Labeling kit RED-NHS), degree of labelling 0.3 to 0.6, in the MST experiment only
notes: Theoretical size of the tetramer is printed as 83.4 kDa
Kd [3]: 1.46 ± 0.544 µM
stoichiometry N [1]: 4

B4: C80 (ssDNA)
DNA: GCTGATCAACCCTACATGTGTAGGTAACCCTAACCCTAACCCTAAGGACAACCCTAGTGAAGCTTGTAACCCTAGGAGCT
binding result (DprA (DprANm) [4]): binds

TTTTTTTTTTTTTTTTTTTTTTTTTTTTTTTTTTTTTTTT (ssDNA) [dT40]
binding result (DprA (DprANm) [5]): binds

B5: GTB25 (ssDNA)
DNA: GCCGTCTGAAAGCTCTAGGCCGTCTGAAACGTCAGGCCGTCTGAAAGCTCTAGGCCGTCTGAAACGTCAGGCCGTCTGAA
binding result (DprA (DprANm) [6]): binds
